Test results published in patent publication US20250011433A1 (published 2025).

B1: G998 (Fc fusion)
chain: EPKSCDKTHTCPPCPAPELLGGPSVFLFPPKPKDTLMISRTPEVTCVVVDVEFEDPEVKFNWYVDGVEVHNAKTKPREEQYASTYRVVSVLTVLHQDWLNGKEYKCKVTNKALPAPIEKTISKAKGQPREPQVYTLPPSRDELTKNQVSLTCLVKGFYPSDIAVEWESNGQPENNYKTTPPVLDSDGSFFLYSKLTVDKSRWQQGNVFSCSVMHEALHNHYTQKSLSLSPGKERKCCVECPPCP
B2: G996 (Fc fusion)
chain: EPKSCDKTHTCPPCPAPELLRGPSVFLFPPKPKDTLMISRTPEVTCVVVDVEFEDPEVKFNWYVDGVEVHNAKTKPREEQYNSTYRVVSVLTVLHQDWLNGKEYKCKVTNKALPAPIEKTISKAKGQPREPQVYTLPPSRDELTKNQVSLTCLVKGFYPSDIAVEWESNGQPENNYKTTPPVLDSDGSFFLYSKLTVDKSRWQQGNVFSCSVMHEALHNHYTQKSLSLSPGKERKCCVECPPCP
B3: G997 (Fc fusion)
chain: EPKSCDKTHTCPPCPAPELLGGPSVFLFPPKPKDTLMISRTPEVTCVVVDVEFEDPEVKFNWYVDGVEVHNAKTKPREEQYNSTYRVVSVLTVLHQDWLNGKEYKCKVTNKALPAPIEKTISKAKGQPREPQVYTLPPSRDELTKNQVSLTCLVKGFYPSDIAVEWESNGQPENNYKTTPPVLDSDGSFFLYSKLTVDKSRWQQGNVFSCSVMHEALHNHYTQKSLSLSPGKERKCCVECPPCP

Molecular target: C1q (UniProt P02745 23-245; P02746 28-253; P02747 29-245)
Sequence (P02745 23-245, chain 1 of 3): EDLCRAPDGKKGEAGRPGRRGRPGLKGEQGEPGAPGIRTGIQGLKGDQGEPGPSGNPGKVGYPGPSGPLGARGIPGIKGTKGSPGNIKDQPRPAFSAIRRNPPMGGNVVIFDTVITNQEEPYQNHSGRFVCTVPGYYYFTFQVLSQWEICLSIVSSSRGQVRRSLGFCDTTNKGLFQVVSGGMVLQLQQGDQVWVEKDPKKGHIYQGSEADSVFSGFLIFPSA
Sequence (P02746 28-253, chain 2 of 3): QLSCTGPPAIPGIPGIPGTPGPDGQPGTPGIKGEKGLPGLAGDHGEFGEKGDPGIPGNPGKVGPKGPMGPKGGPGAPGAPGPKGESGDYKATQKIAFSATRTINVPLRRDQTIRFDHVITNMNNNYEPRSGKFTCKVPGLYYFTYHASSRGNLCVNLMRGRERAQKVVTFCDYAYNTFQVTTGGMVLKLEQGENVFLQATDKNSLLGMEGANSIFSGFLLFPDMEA
Sequence (P02747 29-245, chain 3 of 3): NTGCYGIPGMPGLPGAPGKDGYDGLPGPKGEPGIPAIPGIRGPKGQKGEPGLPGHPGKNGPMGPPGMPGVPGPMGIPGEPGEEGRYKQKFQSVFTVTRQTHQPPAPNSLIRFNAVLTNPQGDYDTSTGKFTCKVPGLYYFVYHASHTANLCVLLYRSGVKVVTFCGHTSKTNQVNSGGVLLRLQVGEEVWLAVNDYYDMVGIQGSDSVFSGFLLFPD
Assay: ELISA

Question: For B1, which EC50 is on record?
Answer: 0.334 mg/L

Question: Which EC50 does the source give for B2 here?
Answer: 0.278 mg/L

Question: How did the EC50 turn out when B3 was run?
Answer: 0.0166 mg/L
